Measured values reported in paper PMC11693862 (Acta Biochimica et Biophysica Sinica, 2024).

What was measured:
Experiment in all cases: crystal structure
[1] = target: SARS-CoV-2 M pro S46F (SARS-CoV-2)
[2] = target: SARS-CoV-2 M pro G15S (SARS-CoV-2)
[3] = target: SARS-CoV-2 M pro M49I (SARS-CoV-2)
[4] = target: SARS-CoV-2 M pro V186F (SARS-CoV-2)
[5] = target: SARS-CoV-2 M pro K90R (SARS-CoV-2)
[6] = target: SARS-CoV-2 M pro Y54C (SARS-CoV-2)
[7] = target: SARS-CoV-2 M pro P132H (SARS-CoV-2)

SARS-CoV-2 M pro S46F (enzyme)
stoichiometry N [1]: 2

SARS-CoV-2 M pro G15S (enzyme)
stoichiometry N [2]: 2

SARS-CoV-2 M pro M49I (enzyme)
stoichiometry N [3]: 2

SARS-CoV-2 M pro V186F (enzyme)
stoichiometry N [4]: 2

SARS-CoV-2 M pro K90R (enzyme)
stoichiometry N [5]: 2

SARS-CoV-2 M pro Y54C (enzyme)
stoichiometry N [6]: 2

SARS-CoV-2 M pro P132H (enzyme)
stoichiometry N [7]: 2
